Target: T1, 5-Fam-[…] (vesicular stomatitis virus)
T1 construct: also called fluorescent tracer peptide; fluorescent probe
Experiment: fluorescence polarisation
Settings: both partners purified

B1: Sec24a (△1–340) (domain or fragment)
chain: LSLQPEGLRVVNLLQERNMLPSTPLKPPVPNLHEDIQKLNCNPELFRCTLTSIPQTQALLNKAKLPLGLLLHPFKDLVQLPVVTSSTIVRCRSCRTYINPFVSFLDQRRWKCNLCYRVNDVPEEFLYNPLTRVYGEPHRRPEVQNATIEFMAPSEYMLRPPQPPVYLFVFDVSHNAVETGYLNSVCQSLLDNLDLLPGNTRTKIGFITFDSTIHFYGLQESLSQPQMLIVSDIEDVFIPMPENLLVNLNESKELVQDLLKTLPQMFTKTLETQSALGPALQAAFKLMSPTGGRMSVFQTQLPTLGVGALKPREEPNHRSSAKDIHMTPSTDFYKKLALDCSGQQVAVDLFLLSGQYSDLASLGCISRYSAGSVYYYPSYHHQHNPVQVQKLQKELQRYLTRKIGFEAVMRIRCTKGLSIHTFHGNFFVRSTDLLSLPNVNPDAGYAVQMSVEESLTDTQLVSFQSALLYTSSKGERRIRVHTLCLPVVSTLNDVFLGADVQAISGLLANMAVDRSMTASLSDARDALVNAVIDSLSAYRSSVLSNQQPGLMVPFSLRLFPLFVLALLKQKSFQTGTNARLDERIFAMCQVKNQPLVYLMLTTHPSLYRVDNLSDEGALNISDRTIPQPPILQLSVEKLSRDGAFLMDAGSVLMLWVGKNCTQNFLSQVLGVQNYASIPQPMTDLPELDTPESARIIAFISWLREQRPFFPILYVIRDESPMKANFLQNMIEDRTESALSYYEFLLHIQQQVNK
notes: Sec24a, H. sapiens, lacking residues 1–340 (△1–340); Purified alone for fluorescence polarization and as the complex with Sec23a for crystallography; also called human Sec24a; source: High Five insect cells (baculovirus), purified (HisTrap HP, HiTrap Q, Superdex 200); not shown: His6, N-terminal, cleaved
Kd: 14.2 µM

From PMC5464768, “ER retention is imposed by COPII protein sorting and attenuated by 4-phenylbutyrate” (eLife, 2017)
